The source of these data is patent US20060229272A1 (published 2006).

The target in the assay is T1, HGPRBMY11 polypeptide (human G-protein coupled receptor, SEQ ID NO:2) (human, UniProt Q9NS75 17-346).
T1 construct: 330 amino acids; also called GPCR74; GPCR 81
T1 sequence: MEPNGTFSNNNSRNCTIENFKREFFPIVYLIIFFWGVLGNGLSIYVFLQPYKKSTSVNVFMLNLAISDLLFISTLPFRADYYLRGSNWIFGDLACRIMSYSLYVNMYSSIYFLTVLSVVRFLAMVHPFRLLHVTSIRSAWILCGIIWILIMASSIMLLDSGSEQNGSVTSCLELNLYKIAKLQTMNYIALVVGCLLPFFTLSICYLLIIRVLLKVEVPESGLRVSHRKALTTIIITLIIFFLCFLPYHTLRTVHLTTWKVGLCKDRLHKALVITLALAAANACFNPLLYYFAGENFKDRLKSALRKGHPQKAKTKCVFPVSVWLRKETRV
The assay can be described thus: phage display panning of M13KE peptide libraries on CHO-K1 cells transfected with HGPRBMY11, after preadsorption on integrin and parental cells; bound phage eluted and sequenced. Here is the method:
On the day of panning, growth medium was discarded and cells were washed with 10 ml PBS by allowing the buffer to flow over the cells. The PBS was removed and 10 ml Tris-EDTA detaching buffer (Gibco Cat. # 13150-016; no trypsin) was added for 2 min. Plates were tapped and/or pipetted up and down to detach cells. This was done quickly to minimize the exposure of the cells to this reagent. Cells were pelleted by centrifugation at 3 K, and then washed with 20 ml PBS. Cells were resuspended cells in PBS with 2% milk blocking agent plus protease inhibitor (EDTA-free; Roche Cat. # 1 873 580). For each library, cell suspensions of ˜500 ul were used. Cells were blocked for 30-60 min with gentle rocking at room temperature. The integrin-coated wells were washed 3× in PBST, then blocked with 2% BSA in PBS for 30 min or more. To preadsorb against integrin, input phage was added to the integrin-coated wells, and incubated for 30 min or more.
At this stage, the blocked parental cells were divided into the required number of aliquots (500 ul aliquot/library). The phage supernatants were added from the integrin-preadsorption step. Preadsorption against the parental cells was carried out for 30 min or more with gentle rocking. […]
Standard procedures were used. […] Colonies were grown in liquid medium and analyzed by standard sequencing procedures.

No end group written: not given here.

B1: LFASSDWSSFPVLVF (SEQ ID NO:81) (peptide)
peptide: LFASSDWSSFPVLVF
modifications: also: displayed fused to phage coat protein, not free peptide
notes: In the assay it stood fused to the phage coat protein, not as a free peptide; The synthesis of free N-acetyl peptide amides is described only as a method; also called Peptide Modulator of HGPRBMY11
Consider B1, for which the binding result was “binds”.

B2: THGFGHRVWSVPLRS (SEQ ID NO:96) (peptide)
peptide: THGFGHRVWSVPLRS
notes: In the assay it stood fused to the phage coat protein; also called Peptide Modulator of HGPRBMY11
For the molecule B2, the binding result was “binds”.
